In the DeepSol protein solubility set:

Assay: soluble on expression in E. coli; label from the status in PepcDB or PDB records

Sequence	soluble on expression in E. coli
DTTGSTPAPIDENGTVLALLPEFEHNPNAMFVLWKDHTSVAKADRINELAHSGKFTDYTRYVGGVYSSEWFWAKAAWVSEQDEQVAKRAFSWVELCDWIPAILADTQHPQKLRRGICAAGHKAMWHESWGGLPEQAFLSAISPTLDGIRDRMFTEVFTSDQAAGYLSKAWAIKLGLPEGIAIAIGEFDCHMGAVGAGAGANDLVKVIGTSTCDILMVESQNVGDRTIHGICGQVEGSAMPELLALEAGQSAFGDMYAWFKNVLMWPLQAYAEHNPDFALTAEEIASELLPMLSQAAEQQGIDQYTPVAMDWLNGRRTPYANQRLKGAICDLNLGSSSPAIFSALVESTAHGAKAIVDCFIEQDVTVERVIAIGGIAQKSPYVMQMCADVIGRDIIVVESDQ	not soluble
VSNKTYYLVGTSHISENSVKLVKEVIERVQPDTVSIELDKKRYEKYTNSNQWGNTDIIKIIKEKKLVVLISNIVYSAYQKKLANTKGTTQAGELIQAIKSAKEIGANIQLIDRDIQVTFKRMWRHLSFLEKPKLFMTFFTEFDDIEQDKLEEYLESDSFDKVFISLSKKYPSLYQDMITDRDKYMSTKLKNNSSQVNVVVVGKAHMKGIKEKLEKRTEFSL	not soluble
MKSTSMNTNKRFQNVNQWKLHASAAAYLAGWKVVRLLPEPVAYRLFSWAAVIASRRGRGMDQLRRNLTRVVGAESVDRALVKRSMQSYARYWCEAFRLSVIARDPDVIHRVDAHAVGVEQVNPHSPMIIVLPHSGNWDLIGMYFVKKVGTFTTVAERVKPESLFRAFVNYRRSLGFEVLPLTGSETSPYSVLLQRVREGRTVCLLGERDLTSHGVEVEFFGETTRMPAGAVKLALDSGAPLHVAHTWFEGDDWGLSLSEPVEITDVKSGVQAIAQIMEKNIKAHPQDWHLLQPLWINDLDRRRYESGLQPKND	not soluble
MLDFAQLPPEVNSALMYAGPGSGPMLAAAAAWEALAAELQTTASTYDALITGLADGPWQGSSAASMVAAATPQVAWLRSTAGQAEQAGSQAVAAASAYEAAFFATVPPPEIAANRALLMALLATNFLGQNTAAIAATEAQYAEMWAQDAAAMYGYAGASAAATQLSPFNPAAQTINPAGLASQAASVGQAVSGAANAQALTDIPKALFGLSGIFTNEPPWLTDLGKALGLTGHTWSSDGSGLIVGGVLGDFVQGVTGSAELDASVAMDTFGKWVSPARLMVTQFKDYFGLAHDLPKWASEGAKAAGEAAKALPAAVPAIPSAGLSGVAGAVGQAASVGGLKVPAVWTATTPAASPAVLAASNGLGAAAAAEGSTHAFGGMPLMGSGAGRAFNNFAAPRYGFKPTVIAQPPAGG	not soluble
MGSDKIHHHHHHMSDIIDEVISSFKTSSIFINREYLLPDYIPDELPHREDQIRKIASILAPLYREEKPNNIFIYGLTGTGKTAVVKFVLSKLHKKFLGKFKHVYINTRQIDTPYRVLADLLESLDVKVPFTGLSIAELYRRLVKAVRDYGSQVVIVLDEIDAFVKKYNDDILYKLSRINSEVNKSKISFIGITNDVKFVDLLDPRVKSSLSEEEIIFPPYNAEELEDILTKRAQMAFKPGVLPDNVIKLCAALAAREHGDARRALDLLRVSGEIAERMKDTKVKEEYVYMAKEEIERDRVRDIILTLPFHSKLVLMAVVSISSEENVVSTTGAVYETYLNICKKLGVEAVTQRRVSDIINELDMVGILTAKVVNRGRYGKTKEIGLAVDKNIIVRSLIESDSRFADLWS	not soluble
MTENKSFKESHPLDDFISDKELSNTTIQKEKLTIEQQKQVDTISKQINPLDNEGLLAFGSDLQKQMSQFSHQMLDEVQSKDVGPIGDTLSDLMSKLKSVNPNELNTDKPSMLKRIFSRAKSSINEIFSRMQSVSAQVDRITIQLQKHQTHLTRDIELLDTLYDKNKQYFDDLSLHIIAAQQKKLQLENEKLPQLQQQAQQSTNQMDIQQVSDMQQFIDRLDKRIYDLQLSRQIALQTAPQIRMIQNVNQALAEKIQSSILTSIPLWKNQMAIALTLMRQRNAVAAQRAVTDTTNDLLTANAEMLKQNAIETATENERGIVDLDTLKRTQRNIIETIEETLIIQQHGREERQLAEKELQQLEQDLKSHLVNIKGPNKQS	not soluble
MSLKINVAPENPQYRIVEIFESLQGEGWNTGMPAVFVRLGKCNLACGWCDTDYLTFGMMGLSDILGRLKTYAARNIIITGGEPTIQPHLDMLLDTLKAEGYFLCLETNGLNPAPPQIDYVATSPKACYAAKYENSCIETADEVRIVADGDVLAFCENMERKIRAHHYYLSPCEQDGAMNIYDTIRQIGILNSRPDASVHWQLSVQTHKWAGIEEGHHHHHH	soluble
MIHPARPLRGQAALEARDPNARLEEAVGLAVALDLNVVEALVAPLRVVTPATLFGKGKVEEFAAICEVEHIDVAVFDDQLTPIQQRNLEKALKVKVVDRTGLILEIFARRARTREGRLQVELARLDYERSRLVRTWTHLERQRGGTGSTGGPGETQIEIDRRLIAGTILKLKKELEEVRRTRTLHRSARKKVPYPTVALVGYTNAGKSTLFNRLTEAEVLAKDMLFATLDPTLRTVKLPDGRPAIMSDTVGFISDLPHELVEAFRATLEEVQEADVVLHVRDVANPDSEAQARDVETVLAELGVTLDEGKTVVEVWNKVDLLSEDDREIVEGQARRNDASAVSAVTGEGCEALLRRIAGLIDDSPPVEVSLAAQDGQALAWIYRNGRVLSRYDGPGGEVTLVARLDAQALGRFERQFPGAQVSAAVDLEHHHHHH	soluble
MSLYKVLALDLDGTVLSDDHTIHPQVKDAIRAAQQHCHVLIVTGRHHTAARPYYDELGLTTPIICCNGTYVYDYASETVLEHNAIDKQDALTFIDLAQEFQLKLVMYIKDAMTYSQRSPIAYMQALEKWAQAASLTHPPQIYAIDSFHQTARDSEFVWKFVVEGLPSSVERLLEHPWVNAHFNGERSWSNRIDFAAKGNSKGLRLAQYVAQLGYAANHVMAIGDNHNDISMLRYAGHGVAMANADDTVKSYARSLCSTDNNHAGLAQLIREHIQGEGHHHHHH	soluble
MSPKSLLITGANRGIGLGLLKQFLKHKDIQIIIATCRDPSKAEELSNLKDSRLHILPLDIDCDESISKLYAEVEKLVGEDGLTVLLNNAGILLPYDVEGEKNRKTLIRQLETNSVSTALITQEFLPLLKKAAAKNGGDGYSINRAAIVNISSTAASVEKIDGTFNGPLVAYRMSKSALNSFAKSCSIDLAKYHILVTSFCPGWVKTGMGGANAMLEIEDATKTLSDNILTLGNAHHGAYLNADLTVIPN	soluble
MDAVDRGVYFDEDFHVRILDVDKYNASKSLQDNTNVFINNIQNMQGLVDKYVSAIDQQVERLEAEKLKAIGLRNRVAALSEERKRKQKEQERMLAEKQEELERLQMEEQSLIKVKGEQELMIQKLSDSSSGAAYV	not soluble
MDWIQCNHCGIKPNQTKLYLTACGHVFCQNCTKAAFNSQCYLCKKPLKVDEINKNLRPDLMELFKDPRQLASDLVNELKQVVAFQAKQREIYVKCKNAEAKKDTERFAEARSKHVEKTQEIEKRKKAFLEDNVKLKNAKEEKNQLMARLKELREQPSQNLSVNKRRSNTRTEPPFSKISRTGPPSVMRKASHEFSLNLRDQSTSKILTSTPLSNIDYSRRDHRNRLFGAGLEHPSPILRQ	soluble
MSNLSGTDKSVILLMTIGEDRAAEVFKHLSTREVQALSTAMANVRQISNKQLTDVLSEFEQEAEQFAALNINANEYLRSVLVKALGEERASSLLEDILETRDTTSGIETLNFMEPQSAADLIRDEHPQIIATILVHLKRSQAADILALFDERLRHDVMLRIATFGGVQPAALAELTEVLNGLLDGQNLKRSKMGGVRTAAEIINLMKTQQEEAVITAVREFDGELAQKIIDEMFLFENLVDVDDRSIQRLLQEVDSESLLIALKGAEPPLREKFLRNMSQRAADILRDDLANRGPVRLSQVENEQKAILLIVRRLAETGEMVIGSGEDTYV	not soluble
MGSDKIHHHHHHMIITLQDTETREISAKIDELHEERGEAALGRVLTLLISTNEAELEHDLEVANNASREHPCRVIAVAPSSRKISPEEEHPTFLDAEIRFGSDAGAGEIIVLRPRGGLVRHADTLVIPLLVPDAPVVAWWPNEAPANLSKDLLGSMASSRITDAMHSSNPRRTMDDLRRNRSAKDVDMSWTRLTVWRAMIASMLDQPPHLPVSNVRVTGQKDYLPLDLLAAWLRLRLNVPVMIEEDPNATAVTGVYLTRGDGVLSLERPSTDDGFAVISVPGQSPQTISVPARTLEECLSEELGRLYPDEIYSEVVSQGLDLVKPRQ	not soluble
MLRIAFASALRFVRRHSSVLQADFEGGVSQSHISRLERGESSVTLERLEEIAAHLNVHPLSLIALTWGASEQIPPAELLERVRRELESVEGLLRPIAIDDQPAVHPRIIEAEKVRNEVQRLKALGHTKAEISRLMGIAKSTAARHW	not soluble
ATGAAAAAATCAATCCTCAAATCTGTGTTAGCGTCTTCTATTACGCTTTCTATCACGCTAAGCAGCACTGCTTTCGCCTCTCCTATCGTGACACCAGACGCACCACAAATTGCCGCTAAAGGCTATGTACTGATGGATTACCATTCAGGAAAAGTGTTGGCTGAAAAAGAGATGGATACCAAACTCTCTCCTGCCAGCCTAACCAAGATGATGACCAGTTACGTGATCGGTCAAGAAGTAAAGCGTGGCAACATCTCGCTAAATGACGATGTCGTGATCAGCAAAAATGCTTGGGCGAAAAACTTCCCTGATTCTTCGAAAATGTTCGTTGAAGTCGGTACCACGGTTAAGGTCAGCGATCTCAACCGCGGCATCATCATCCAATCGGGTAATGATGCGTGTGTAGCGATGGCAGAGCACGTCGCAGGGACGGAAGATGCGTTTGTTGACCTGATGAACGCTTGGGCAAGCTCACTTGGGATGAAGAATTCGCACTTCACTAACTCTCACGGTTTGGACGATCCTAATCTTTACTCTACGCCATACGATCTGGCTCTACTTGGCCAAGCTCTGATCCGTGAWGTGCCTGAAGAGTACGCGATCTACTCCGAGCAAAAATTCACCTACAACGGCATCACTCAATACAACCGTAACGGTTTGCTTTGGGATAAAAGCATGAATGTGGACGGCATTAAAACCGGACATACGAGTGGTGCTGGCTATAACCTCGTGAGCTCTGCTACAGAAGGCAACATGCGCTTGGTTGCGGTGGTGATGGGTACTGACAACGAAAACGCGCGTAAAGCGGAAAGTAAGAAGCTACTGAGCTACGGTTTCCGCTTCTTTGAAACCGTGGCACCACACAAAGCGGGTGAAACTTTCGTGAATGAAACCATCTGGATGGGCGATAAAGACACGATTGCACTCGGTGTTGATAAAGATACTTACGTAACTTTGCCACGCGGACAGGCCAAAGATCTCACCGCCAGCTTTGTACTTGAAAAACAATTGAAAGCACCGCTGAAGAAAGGCGATATCGTCGGCACACTTTACTATCAATTAGCTGGTAACGATATTGCTCAATACCCATTGCTCGCACTGGAAGATGTGCAAGAAGGCAGCCTATTTAGCCGCCTATGGGATTACTTGGTTCTGCTGTTCAAAAGCTGGTTTTAA	not soluble
MLIACRLCAKAVQQGLKTVVYVPDERLAGQFDKLLWTFTPTGFVPHCRVDNKLADVTPVIMNSRPVLMEAGCFGVLLNLDADVPPGFEQFPRVVEIVDEAEDGKLQARKRYRHYQEQGHDVRHHRLDGN	not soluble
MVTSPPTSSPSQRSYSPQDWLRGYQSQPQEWDYWVEDVEGSIPPDLQGTLYRNGPGLLEIGDRPLKHPFDGDGMVTAFKFPGDGRVHFQSKFVRTQGYVEEQKAGKMIYRGVFGSQPAGGWLKTIFDLRLKNIANTNITYWGDRLLALWEGGQPHRLEPSNLATIGLDDLGGILAEGQPLSAHPRIDPASTFDGGQPCYVTFSIKSSLSSTLTLLELDPQGKLLRQKTETFPGFAFIHDFAITPHYAIFLQNNVTLNGLPYLFGLRGAGECVQFHPDKPAQIILVPRDGGEIKRIPVQAGFVFHHANAFEENGKIILDSICYNSLPQVDTDGDFRSTNFDNLDPGQLWRFTIDPAAATVEKQLMVSRCCEFPVVHPQQVGRPYRYVYMGAAHHSTGNAPLQAILKVDLESGTETLRSFAPHGFAGEPIFVPRPGGVAEDDGWLLCLIYKADLHRSELVILDAQDITAPAIATLKLKHHIPYPLHGSWAQT	soluble
